We go through nine molecules from publication PMC5052650, “Characterization of the DNA dependent activation of human ARTD2/PARP2”.

Data set [1] deals with T1, ARTD2FL (Homo sapiens, UniProt Q9UGN5 1-583). Kind of data set: fluorescence polarization; Kd range 10-63 nM over oligos; 1:1 to 4:1; FP: 10 mM Hepes pH 8.0, 150 mM NaCl, 0.1 mM TCEP, 0.1 mM EDTA, 10% glycerol, 25 C, 5 nM DNA (250 nM for stoichiometry); EMSA: 50 mM Hepes, 300 mM NaCl, 0.1 mM EDTA, 10% glycerol, 0.1 mM TCEP, on ice, 1 uM DNA; SEC-SAXS: 20 mM Hepes pH 7.5, 300 mM NaCl, 5% glycerol. To be noted: protein: recombinant, tags: His6-thioredoxin removed by TEV (QS left), label: fluorescein.

Data set [2] concerns the target T1, ARTD2FL. Kind of data set: fluorescence polarization; affinity similar to oligo 40; FP: 10 mM Hepes pH 8.0, 150 mM NaCl, 0.1 mM TCEP, 0.1 mM EDTA, 10% glycerol, 25 C, 5 nM DNA (250 nM for stoichiometry); EMSA: 50 mM Hepes, 300 mM NaCl, 0.1 mM EDTA, 10% glycerol, 0.1 mM TCEP, on ice, 1 uM DNA; SEC-SAXS: 20 mM Hepes pH 7.5, 300 mM NaCl, 5% glycerol. To be noted: protein: recombinant; tags: His6-thioredoxin removed by TEV (QS left); label: fluorescein.

In data set [3] the target is T1, ARTD2FL. Kind of data set: fluorescence polarization; affinity similar to oligo 39; FP: 10 mM Hepes pH 8.0, 150 mM NaCl, 0.1 mM TCEP, 0.1 mM EDTA, 10% glycerol, 25 C, 5 nM DNA (250 nM for stoichiometry); EMSA: 50 mM Hepes, 300 mM NaCl, 0.1 mM EDTA, 10% glycerol, 0.1 mM TCEP, on ice, 1 uM DNA; SEC-SAXS: 20 mM Hepes pH 7.5, 300 mM NaCl, 5% glycerol. As to conditions: protein: recombinant; tags: His6-thioredoxin removed by TEV (QS left); label: fluorescein.

The target in data set [4] is T1, ARTD2FL. Put plainly: EMSA; FP: 10 mM Hepes pH 8.0, 150 mM NaCl, 0.1 mM TCEP, 0.1 mM EDTA, 10% glycerol, 25 C, 5 nM DNA (250 nM for stoichiometry); EMSA: 50 mM Hepes, 300 mM NaCl, 0.1 mM EDTA, 10% glycerol, 0.1 mM TCEP, on ice, 1 uM DNA; SEC-SAXS: 20 mM Hepes pH 7.5, 300 mM NaCl, 5% glycerol. To be noted: protein: recombinant; tags: His6-thioredoxin removed by TEV (QS left).

Data set [5] concerns the target ARTD2WGR+CAT (Homo sapiens, UniProt Q9UGN5 71-583). Described as above. As to conditions: protein: recombinant; tags: His6-ZB removed by TEV (QS left); hairpin, blunt.
The target of data set [6] is ARTD2CAT (Homo sapiens, UniProt Q9UGN5 235-583). The description is as above. To be noted: protein: recombinant; tags: His6 removed by TEV (SM left); hairpin, blunt.
The target in data set [7] is T1, ARTD2FL. Put plainly: EMSA; no free DNA above 2:1; FP: 10 mM Hepes pH 8.0, 150 mM NaCl, 0.1 mM TCEP, 0.1 mM EDTA, 10% glycerol, 25 C, 5 nM DNA (250 nM for stoichiometry); EMSA: 50 mM Hepes, 300 mM NaCl, 0.1 mM EDTA, 10% glycerol, 0.1 mM TCEP, on ice, 1 uM DNA; SEC-SAXS: 20 mM Hepes pH 7.5, 300 mM NaCl, 5% glycerol. As to conditions: protein: recombinant; tags: His6-thioredoxin removed by TEV (QS left); hairpin, blunt.

The target of data set [8] is T1, ARTD2FL. Put plainly: fluorescence polarization; Kd range 10-63 nM over oligos; binds as monomer (1:1); FP: 10 mM Hepes pH 8.0, 150 mM NaCl, 0.1 mM TCEP, 0.1 mM EDTA, 10% glycerol, 25 C, 5 nM DNA (250 nM for stoichiometry); EMSA: 50 mM Hepes, 300 mM NaCl, 0.1 mM EDTA, 10% glycerol, 0.1 mM TCEP, on ice, 1 uM DNA; SEC-SAXS: 20 mM Hepes pH 7.5, 300 mM NaCl, 5% glycerol. As to conditions: protein: recombinant; tags: His6-thioredoxin removed by TEV (QS left); label: fluorescein; hairpin, blunt.

For data set [9], the target named is T1, ARTD2FL. Put plainly: EMSA; some free DNA even at 4:1; FP: 10 mM Hepes pH 8.0, 150 mM NaCl, 0.1 mM TCEP, 0.1 mM EDTA, 10% glycerol, 25 C, 5 nM DNA (250 nM for stoichiometry); EMSA: 50 mM Hepes, 300 mM NaCl, 0.1 mM EDTA, 10% glycerol, 0.1 mM TCEP, on ice, 1 uM DNA; SEC-SAXS: 20 mM Hepes pH 7.5, 300 mM NaCl, 5% glycerol. As to conditions: protein: recombinant; tags: His6-thioredoxin removed by TEV (QS left); nicked dumbbell, two hairpins, 1 strand.

In data set [10] the target is T1, ARTD2FL. Kind of data set: EMSA; no free DNA only after 4:1; FP: 10 mM Hepes pH 8.0, 150 mM NaCl, 0.1 mM TCEP, 0.1 mM EDTA, 10% glycerol, 25 C, 5 nM DNA (250 nM for stoichiometry); EMSA: 50 mM Hepes, 300 mM NaCl, 0.1 mM EDTA, 10% glycerol, 0.1 mM TCEP, on ice, 1 uM DNA; SEC-SAXS: 20 mM Hepes pH 7.5, 300 mM NaCl, 5% glycerol. To be noted: protein: recombinant; tags: His6-thioredoxin removed by TEV (QS left); blunt, palindromic, 2 copies.

T1 sequence (Q9UGN5 whole entry): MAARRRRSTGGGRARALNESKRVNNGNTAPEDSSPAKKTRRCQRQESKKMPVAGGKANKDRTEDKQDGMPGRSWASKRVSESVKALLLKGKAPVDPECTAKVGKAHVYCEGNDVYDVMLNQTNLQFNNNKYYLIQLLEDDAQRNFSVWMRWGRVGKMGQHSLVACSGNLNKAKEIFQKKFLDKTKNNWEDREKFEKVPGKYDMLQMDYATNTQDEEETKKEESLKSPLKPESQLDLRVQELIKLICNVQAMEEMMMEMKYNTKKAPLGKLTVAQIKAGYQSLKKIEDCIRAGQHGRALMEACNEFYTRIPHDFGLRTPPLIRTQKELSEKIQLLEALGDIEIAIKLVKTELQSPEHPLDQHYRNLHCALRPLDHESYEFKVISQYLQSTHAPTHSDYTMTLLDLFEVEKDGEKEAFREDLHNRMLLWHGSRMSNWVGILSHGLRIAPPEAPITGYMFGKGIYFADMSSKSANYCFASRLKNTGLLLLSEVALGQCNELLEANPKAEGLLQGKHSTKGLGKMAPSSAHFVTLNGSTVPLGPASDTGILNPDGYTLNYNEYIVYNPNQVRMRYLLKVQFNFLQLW
Sequence of ARTD2WGR+CAT (Q9UGN5 71-583): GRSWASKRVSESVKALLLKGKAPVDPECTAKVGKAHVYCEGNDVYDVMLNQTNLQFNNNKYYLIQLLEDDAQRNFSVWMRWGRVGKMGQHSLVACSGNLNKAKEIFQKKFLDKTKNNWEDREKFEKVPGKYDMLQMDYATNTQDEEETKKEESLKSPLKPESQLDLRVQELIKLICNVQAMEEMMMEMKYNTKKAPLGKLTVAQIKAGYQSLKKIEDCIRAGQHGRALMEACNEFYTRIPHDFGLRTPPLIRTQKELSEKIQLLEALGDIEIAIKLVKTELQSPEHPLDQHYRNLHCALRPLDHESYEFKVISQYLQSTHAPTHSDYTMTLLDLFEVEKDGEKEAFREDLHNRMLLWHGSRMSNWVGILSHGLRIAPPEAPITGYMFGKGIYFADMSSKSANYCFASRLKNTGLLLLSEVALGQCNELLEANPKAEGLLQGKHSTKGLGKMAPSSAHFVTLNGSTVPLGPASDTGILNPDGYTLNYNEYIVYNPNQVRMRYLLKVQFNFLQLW
Sequence of ARTD2CAT (Q9UGN5 235-583): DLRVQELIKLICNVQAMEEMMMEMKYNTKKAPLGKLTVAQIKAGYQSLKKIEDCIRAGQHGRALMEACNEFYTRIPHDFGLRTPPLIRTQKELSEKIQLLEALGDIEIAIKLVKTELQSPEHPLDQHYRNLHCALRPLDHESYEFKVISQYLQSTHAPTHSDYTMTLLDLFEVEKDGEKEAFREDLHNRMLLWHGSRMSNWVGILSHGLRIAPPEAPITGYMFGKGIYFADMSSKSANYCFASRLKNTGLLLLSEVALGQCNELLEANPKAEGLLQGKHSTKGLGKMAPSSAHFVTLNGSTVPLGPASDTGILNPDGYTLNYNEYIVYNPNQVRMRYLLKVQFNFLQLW

B1: oligonucleotide 38 (labelled 18) (dsDNA)
DNA 1: GCCTTAGCGCGTATACGCGCTAAGGC
DNA 2: GCCTTAGCGCGTATACGCGCTAAGGC
modifications: 5'-phosphate
B1: in data set [1] (blunt, palindromic, 2 copies), the binding result is “binds”.

B2: oligonucleotide 39 (labelled 19) (dsDNA)
DNA 1: CCAGGACCAGGGCGCAGATCACCTTGTTCTCCA
DNA 2: TGGAGAACAAGGTGATCTGCGCCCTGGTCCTGG
Take B2: in data set [2], the binding result is reported as “binds”.

B3: oligonucleotide 40 (labelled 20) (dsDNA)
DNA 1: B2 DNA 1
DNA 2: B2 DNA 2
modifications: 5'-phosphate
Consider B3, for which the binding result in [3] was “binds”.

B4: oligonucleotide 20 (dsDNA)
DNA 1: B2 DNA 1
DNA 2: B2 DNA 2
modifications: 5'-phosphate
As for B4, the binding result in data set [4] was “binds”.

For the molecule GGAAGTTCTTTTGAACTTCC (structured_DNA, 5'-phosphate) [oligonucleotide 6], the binding result is listed as “binds” in data set [5], “no binding” in data set [6] and “binds” in data set [7].

For GGAAGTTCTTTTGAACTTCC (structured_DNA, 5'-phosphate) [oligonucleotide 42 (labelled 6)], in [8], the binding result is listed as “binds”.

With GGAAGTTCTTTTGAACTTCCTCGAAGCTTTTGCTTCGA (structured_DNA, 5'-phosphate) [oligonucleotide 2], in data set [9], the binding result was “binds”.

Regarding GGAAGTTCTTTTGAACTTCCTCGAAGCTTTTGCTTCGA (structured_DNA, 5'-phosphate) [oligonucleotide 41 (labelled 2)], in [1] (nicked dumbbell, two hairpins, 1 strand), the binding result is reported as “binds”.

B5: oligonucleotide 18 (dsDNA)
DNA 1: GCCTTAGCGCGTATACGCGCTAAGGC
DNA 2: GCCTTAGCGCGTATACGCGCTAAGGC
modifications: 5'-phosphate
With B5, the binding result in data set [10] was “binds”.
